Several values for one entry are separate records, joined by “and”; a condition that tells them apart may be missing. Equal values may be shown once.
B1: BII61-62 mAb (anti-hPD-L1, human IgG1, kappa) (antibody, V domains shown)
VH: QVQLQQSGPGLVKPSQTLSLTCAISGDSVSSNSASWNWIRQSPSRGLEWLGRTYYRSKWYDDYAVSVKGRISINPDTSKNQFSLQLNSVTPEDTAVYYCARSQGRYFVNYGMDVWGQGTTVTVSS
VL: DIRLTQSPSSLSASVGDRITITCRASQSISSYLNWYQQKPGKAPKLLVYGASSLQSGVPSRFSGSGSGTDFTLTISSLQPEDVATYYCQQSYFTPRGITFGPGTKVDIK
B2: B60-55 mAb (anti-hPD-L1, human IgG1, kappa) (antibody, V domains shown)
VH: QVQLVQSGAEVKKPASSVKVSCTASGGSFSTYAISWVRQAPGQGLEWMGGIIPIFGTTKYAQRFQGRVTITADESTTTAYMELSSLISDDTALYYCTTSRGFNYGWFDYWGQGTLVTVSS
VL: EIVMTQSPATLSLSPGERATLSCRASQSVGIHLAWYQQKLGQAPRLLIYGASSRATGIPDRFSGSGSGTDFTLTISRLEPEDFAVYYCQQYGSLPRTFGQGTKVEIK
B3: B60-55 anti-hPD-L1 scFv fused to IgG1-Fc (affinity matured) (Fc fusion)
scFv: QVQLVQSGAEVKKPASSVKVSCTASGGSFSTYAISWVRQAPGQGLEWMGGIIPIFGTTKYAQRFQGRVTITADESTTTAYMELSSLISDDTALYYCTTSRGFNYGWFDYWGQGTLVTVSSGGGGSGGGGSGGGGSEIVMTQSPATLSLSPGERATLSCRASQSVGIHLAWYQQKLGQAPRLLIYGASSRATGIPDRFSGSGSGTDFTLTISRLEPEDFAVYYCQQYGSLPRTFGQGTKVEIK
notes: not shown: human immunoglobulin gamma1 (IgG1) constant region, UniProt P01857, residues 104-330 (IgG1-Fc)
B4: BII61-62 anti-hPD-L1 scFv fused to IgG1-Fc (affinity matured) (Fc fusion)
scFv: QVQLQQSGPGLVKPSQTLSLTCAISGDSVSSNSASWNWIRQSPSRGLEWLGRTYYRSKWYDDYAVSVKGRISINPDTSKNQFSLQLNSVTPEDTAVYYCARSQGRYFVNYGMDVWGQGTTVTVSSGGGGSGGGGSGGGGSDIRLTQSPSSLSASVGDRITITCRASQSISSYLNWYQQKPGKAPKLLVYGASSLQSGVPSRFSGSGSGTDFTLTISSLQPEDVATYYCQQSYFTPRGITFGPGTKVDIK
notes: as for B3

Assays:
[1] = target: human PD-L1 on primary human cells in the dendritic cell / CD4+ T cell mixed lymphocyte reaction (human, UniProt Q9NZQ7 19-290); assay: cell-based or functional assay
[2] = target: hPD-L1 as used in the binding and blocking tests of Example 4 (human, UniProt Q9NZQ7 19-238, limits assumed); assay: competition with PD-1 for PD-L1, scFv-Fc (FIG. 3)
hPD-L1 as used in the binding and blocking tests of Example 4, sequence (Q9NZQ7 19-238 limits assumed): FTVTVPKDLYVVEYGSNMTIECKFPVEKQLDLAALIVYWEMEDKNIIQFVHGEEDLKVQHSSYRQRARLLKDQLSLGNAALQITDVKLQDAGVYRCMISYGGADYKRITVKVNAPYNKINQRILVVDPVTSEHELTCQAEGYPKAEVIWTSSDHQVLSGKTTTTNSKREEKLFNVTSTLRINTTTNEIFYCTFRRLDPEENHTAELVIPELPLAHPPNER

human PD-L1 on primary human cells in the dendritic cell / CD4+ T cell mixed lymphocyte reaction, sequence (Q9NZQ7 19-290): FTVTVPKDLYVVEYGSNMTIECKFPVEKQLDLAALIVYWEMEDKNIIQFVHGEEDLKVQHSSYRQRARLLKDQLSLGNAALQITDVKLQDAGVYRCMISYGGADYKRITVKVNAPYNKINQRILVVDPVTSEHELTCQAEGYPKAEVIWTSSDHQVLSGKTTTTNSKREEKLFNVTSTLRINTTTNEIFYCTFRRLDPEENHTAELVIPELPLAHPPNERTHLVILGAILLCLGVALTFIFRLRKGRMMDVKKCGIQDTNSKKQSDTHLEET

Binder	EC50 of IFN-γ secretion by CD4+ T cells in a dendritic cell-T cell mixed lymphocyte reaction [1]	IC50 [2]
B1	0.078 µg/ml and 0.5 nM	–
B2	0.189 µg/ml and 1.2 nM	–
B3	–	1.14 µg/mL
B4	–	0.837 µg/mL

From patent US20210115143A1 (R PHARM OVERSEAS, published 2021)
